# According to IntAct's records for PubMed 21245319:
# B1: Histone-lysine N-methyltransferase SETD7 (Homo sapiens), Q8WTS6 (parent)
# chain: MDSDDEMVEEAVEGHLDDDGLPHGFCTVTYSSTDRFEGNFVHGEKNGRGKFFFFDGSTLEGYYVDDALQGQGVYTYEDGGVLQGTYVDGELNGPAQEYDTDGRLIFKGQYKDNIRHGVCWIYYPDGGSLVGEVNEDGEMTGEKIAYVYPDERTALYGKFIDGEMIEGKLATLMSTEEGRPHFELMPGNSVYHFDKSTSSCISTNALLPDPYESERVYVAESLISSAGEGLFSKVAVGPNTVMSFYNGVRITHQEVDSRDWALNGNTLSLDEETVIDVPEPYNHVSKYCASLGHKANHSFTPNCIYDMFVHPRFGPIKCIRTLRAVEADEELTVAYGYDHSPPGKSGPEAPEWYQVELKAFQATQQK
# Variants of: B1
# Settings: with sir1_human SIRT1, Q96EB6
# Chain of sir1_human SIRT1, Q96EB6 (Q96EB6 whole entry): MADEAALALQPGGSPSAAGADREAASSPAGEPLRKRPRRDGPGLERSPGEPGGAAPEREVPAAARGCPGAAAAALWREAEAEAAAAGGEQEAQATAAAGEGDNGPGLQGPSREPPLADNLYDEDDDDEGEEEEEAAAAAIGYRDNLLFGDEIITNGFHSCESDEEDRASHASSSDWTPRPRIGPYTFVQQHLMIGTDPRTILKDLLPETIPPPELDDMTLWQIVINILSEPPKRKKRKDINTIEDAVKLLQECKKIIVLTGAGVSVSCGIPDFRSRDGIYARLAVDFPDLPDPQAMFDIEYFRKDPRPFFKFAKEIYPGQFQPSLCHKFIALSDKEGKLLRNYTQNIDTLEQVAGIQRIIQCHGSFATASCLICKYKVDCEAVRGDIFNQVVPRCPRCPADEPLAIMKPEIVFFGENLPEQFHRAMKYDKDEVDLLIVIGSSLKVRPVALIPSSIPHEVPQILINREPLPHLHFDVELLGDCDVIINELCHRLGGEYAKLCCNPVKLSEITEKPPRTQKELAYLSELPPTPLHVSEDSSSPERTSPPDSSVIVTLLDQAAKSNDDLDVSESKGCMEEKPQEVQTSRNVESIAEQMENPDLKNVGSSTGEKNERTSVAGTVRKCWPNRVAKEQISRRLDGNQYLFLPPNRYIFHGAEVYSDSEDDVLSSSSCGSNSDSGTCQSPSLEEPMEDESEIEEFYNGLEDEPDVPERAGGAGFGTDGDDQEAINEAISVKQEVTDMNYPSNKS
row,effect of a mutation on the interaction,Variant
1,decreasing interaction strength,H297A
